Experimental data from patent EP1242600B1 (ZymoGenetics, Inc., dated 2001).
Several values for one entry are separate records, joined by “and”; a condition that tells them apart may be missing. Identical values can stand only once.

Target: T1, CRF2-4/zcytor11 heterodimeric receptor on BaF3/CRF2-4/zcytor11 cells (human, UniProt Q08334 20-325, limits assumed)
T1 sequence 1: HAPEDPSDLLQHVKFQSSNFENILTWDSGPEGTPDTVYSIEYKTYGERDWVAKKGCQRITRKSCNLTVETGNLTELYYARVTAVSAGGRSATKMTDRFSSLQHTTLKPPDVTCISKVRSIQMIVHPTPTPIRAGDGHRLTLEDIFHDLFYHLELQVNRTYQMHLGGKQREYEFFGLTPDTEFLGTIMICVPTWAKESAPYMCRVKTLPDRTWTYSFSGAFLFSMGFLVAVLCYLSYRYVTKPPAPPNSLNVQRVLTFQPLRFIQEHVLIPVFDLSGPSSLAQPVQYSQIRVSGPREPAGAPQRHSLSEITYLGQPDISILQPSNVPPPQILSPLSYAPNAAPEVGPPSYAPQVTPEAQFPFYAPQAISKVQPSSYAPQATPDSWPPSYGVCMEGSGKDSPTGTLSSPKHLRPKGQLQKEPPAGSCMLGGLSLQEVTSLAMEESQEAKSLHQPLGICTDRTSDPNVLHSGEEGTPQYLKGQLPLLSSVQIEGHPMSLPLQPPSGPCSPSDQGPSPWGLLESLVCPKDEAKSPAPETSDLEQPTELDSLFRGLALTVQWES
T1 sequence 2: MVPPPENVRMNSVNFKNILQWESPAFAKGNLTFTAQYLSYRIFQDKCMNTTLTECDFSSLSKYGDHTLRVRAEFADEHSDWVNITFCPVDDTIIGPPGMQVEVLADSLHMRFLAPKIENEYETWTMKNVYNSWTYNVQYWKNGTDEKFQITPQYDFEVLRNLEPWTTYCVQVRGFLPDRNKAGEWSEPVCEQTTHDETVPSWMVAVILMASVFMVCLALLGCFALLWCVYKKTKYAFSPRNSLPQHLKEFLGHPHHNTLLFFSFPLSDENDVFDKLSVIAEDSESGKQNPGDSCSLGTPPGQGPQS
Assay: cell-based or functional assay

B1: ZCYTO18-CEE polypeptide purified from BHK 570 cells (ligand)
chain: APISSHCRLDKSNFQQPYITNRTFMLAKEASLADNNTDVRLIGEKLFHGVSMSERCYLMKQVLNFTLEEVLFPQSDRFQPYMQEVVPFLARLSNRLSTCHIEGDDLHIQRNVQKLKDTVKKLGESGEIKAIGELDLLFMSLRNACIEYMPME
- proliferation of BaF3/CRF2-4/zcytor11 cells (Alamar Blue): ~15 fold over background and 2 fold induction
